US10689421B2, “Bacteriocin-producing Paenibacillus ehimensis and application thereof” (National Pingtung University of Science and Technology, priority 2018, dated 2020)

Key:
[1] = test system: Aeromonas hydrophila; experiment: Inhibitory zone of Peocin on solid medium containing pathogen; assay type: cell-based; settings: solid medium containing strain 10^6 CFU/ml
From the text: (§1) Following pathogens were subjected in the test. Six aquaculture pathogen: Aeromonas hydrophila, Vibrio vulnificus, Vibrio alginolyticus, Vibrio parahaemolyticus, Streptococcus agalactiae and Debaryomyces hansenii. Five foodborne pathogen which cause food rot and food poisoning: Staphylococcus aureus, Methicillin-resistant Staphylococcus aureus (MRSA), Escherichia coli, Salmonella typhimurium and Listeria monocytogenes. Two clinical infectious pathogens: Pseudomonas aeruginosa and Burkholderia gladioli causing leaf spot disease. Culture these strains separately and create solid medium containing these strains (10^6 CFU/ml). Add antibacterial protein after solid medium solidifies, then measure the antibacterial activity and inhibitory zone diameter.

[2] = test system: Burkholderia gladioli; experiment: as above; assay type: cell-based; settings: solid medium containing strain 10^6 CFU/ml
From the text: as §1

[3] = test system: Debaryomyces hansenii; experiment: as above; assay type: cell-based; settings: solid medium containing strain 10^6 CFU/ml
From the text: as §1

[4] = test system: Escherichia coli; experiment: as above; assay type: cell-based; settings: solid medium containing strain 10^6 CFU/ml
From the text: as §1

[5] = test system: Listeria monocytogenes; experiment: as above; assay type: cell-based; settings: solid medium containing strain 10^6 CFU/ml
From the text: as §1

[6] = test system: Methicillin-resistant Staphylococcus aureus (MRSA); experiment: as above; assay type: cell-based; settings: solid medium containing strain 10^6 CFU/ml
From the text: as §1

[7] = test system: Pseudomonas aeruginosa; experiment: as above; assay type: cell-based; settings: solid medium containing strain 10^6 CFU/ml
From the text: as §1

[8] = test system: Salmonella typhimurium; experiment: as above; assay type: cell-based; settings: solid medium containing strain 10^6 CFU/ml
From the text: as §1

[9] = test system: Staphylococcus aureus; experiment: as above; assay type: cell-based; settings: solid medium containing strain 10^6 CFU/ml
From the text: as §1

[10] = test system: Streptococcus agalactiae; experiment: as above; assay type: cell-based; settings: solid medium containing strain 10^6 CFU/ml
From the text: as §1

[11] = test system: Vibrio alginolyticus; experiment: as above; assay type: cell-based; settings: solid medium containing strain 10^6 CFU/ml
From the text: as §1

[12] = test system: Vibrio parahaemolyticus; experiment: as above; assay type: cell-based; settings: solid medium containing strain 10^6 CFU/ml
From the text: as §1

[13] = test system: Vibrio vulnificus; experiment: as above; assay type: cell-based; settings: solid medium containing strain 10^6 CFU/ml
From the text: as §1

[14] = biological target: proteinase K (Parengyodontium album, UniProt P06873); experiment: Sensitivity of antibacterial protein Peocin to protease; assay type: physicochemical; settings: protease K 1 mg/ml, 4 hours, 37° C.
proteinase K, sequence (P06873 106-384): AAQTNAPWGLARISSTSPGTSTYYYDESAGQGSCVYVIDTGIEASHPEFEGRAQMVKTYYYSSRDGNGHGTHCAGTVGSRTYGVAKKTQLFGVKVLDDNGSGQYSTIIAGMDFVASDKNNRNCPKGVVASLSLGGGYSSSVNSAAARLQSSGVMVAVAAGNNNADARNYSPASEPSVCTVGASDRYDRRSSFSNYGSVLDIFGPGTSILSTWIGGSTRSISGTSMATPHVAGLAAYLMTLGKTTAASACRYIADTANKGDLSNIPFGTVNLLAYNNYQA
Experimental: (§2) Evaluate sensitivity of Peocin to proteinase K and trypsin respectively. First, add 180 μl of purified antibacterial protein peocin into 1.7 ml micro-centrifuge tube, then add 20 μl of 10 mg/ml proteinase K and trypsin respectively for the final concentration of protease to be 1 mg/ml, then stand for 4 hours under 37° C. for reaction. Next, use TSB agar plate containing E. coli to measure the antibacterial activity and inhibitory zone diameter. For comparison, use PBS buffer without antibacterial protein as buffer group, and control group is purified antibacterial protein peocin without protease.

[15] = test system: trypsin; experiment: as above; assay type: physicochemical; settings: trypsin 1 mg/ml, 4 hours, 37° C.
Experimental: as §2

[16] = test system: E. coli; experiment: Antibacterial protein stability under different preservation temperature for 70 days; assay type: physicochemical
Experimental: Place purified antibacterial protein Peocin sample in 40° C., room temperature, 4° C. and −20° C. environment respectively for 70 days. Each week during the experiment, extract samples and measure their antibacterial activity and inhibitory zone diameter using TSB agar plate containing E. coli.

[17] = test system: E. coli; experiment: Antibacterial activity of Peocin expressed in E. coli BL21 (DE3)/pET-28-peocin; assay type: cell-based
Experimental: Add 30 μl E. coli BL21 (DE3)/pET-28-peocin bacterial liquid and 3 μl Kanamycin (100 mg/ml) to 3 ml LB culture broth and incubate for 24 hours. After incubation, add 0.5 ml medium and 50 μl Kanamycin (100 mg/ml) in 50 ml LB culture broth, incubate for 3 hours and add 50 μl 1M IPTG to induce expression of high-level production of protein. Incubate for 9 hours, measure the OD600 nm absorbance of bacterial broth, concentrate the bacterial liquid to OD600 nm=60/ml, wash with 1×PBS for once, place the bacterial broth in centrifuge and centrifuge it for 15 minutes with the speed of 1300 rpm. Remove the supernatant, add 2 ml 1×PBS and lyse by ultrasonic machine under 5 seconds on/5 seconds off cycle for 5 minutes, then again place the bacterial broth in centrifuge and centrifuge it for 20 minutes under 4° C. with the speed of 4000 rpm. Extract the supernatant and filter it using 0.45 μm syringe filter, then preserve the sample in 4° C. freezer to await for further steps. Load E. coli BL21 (DE3)/pET-28 and E. coli BL21 (DE3)/pET-28-peocin in the same SDS-PAGE to confirm that the transformed plasmid do express antibacterial protein in high-level production, then test antibacterial activity and measure inhibitory zone of E. coli BL21 (DE3)/pET-28 and E. coli BL21 (DE3)/pET-28-peocin protein sample on TSB medium containing E. coli to confirm the antibacterial ability of expressed protein.

B1: Peocin: bacteriocin; DNA starvation/stationary phase protection protein produced by Paenibacillus ehimensis NPUST-1, amino acid SEQ ID NO: 1 (protein, listed as Paenibacillus ehimensis)
chain: MNEQLTVLLNNQIANWSVLYVKLHNYHWYVKGPQFFTLHTKFEELYTEAALHVDALAERLLALGGKPVATMSGSLRLASVREAEGEESAERMVAALVNDFTLIIGELKSGMKYAESVQDETTGDLLLAIHSSLEKHVWMLNAFLGN
Diameter of inhibitory zone [1]: 1.3 ± 0.00 cm | Diameter of inhibitory zone [2]: 1.5 ± 0.05 cm | Diameter of inhibitory zone [3]: 1.3 ± 0.00 cm | Diameter of inhibitory zone [4]: 1.4 ± 0.00 cm | Diameter of inhibitory zone [5]: 1.0 ± 0.05 cm | Diameter of inhibitory zone [6]: 1.1 ± 0.05 cm | Diameter of inhibitory zone [7]: 1.2 ± 0.00 cm | Diameter of inhibitory zone [8]: 1.1 ± 0.05 cm | Diameter of inhibitory zone [9]: 1.1 ± 0.05 cm | Diameter of inhibitory zone [10]: 1.4 ± 0.00 cm | Diameter of inhibitory zone [11]: 1.1 ± 0.03 cm | Diameter of inhibitory zone [12]: 1.2 ± 0.03 cm | Diameter of inhibitory zone [13]: 1.3 ± 0.00 cm | antibacterial activity after protease treatment [14]: stable antibacterial activity | antibacterial activity after protease treatment [15]: stable antibacterial activity | antibacterial activity remained after preservation ([16]; 4° C.): 90% | antibacterial activity remained after preservation ([16]; 40° C.): 66% | antibacterial activity remained after preservation ([16]; room temperature): 80% | antibacterial activity remained after preservation ([16]; −20° C.): 90% | antibacterial activity when expressed in E. coli ([17]; inside E. coli BL21 (DE3)/pET-28-peocin after induction): no antibacterial activity | antibacterial activity of recombinant protein released outside of E. coli ([17]; supernatant of lysed E. coli BL21 (DE3)/pET-28-peocin, TSB medium containing E. coli): antibacterial effect
